Data from article PMC5421625 (2017).

B1: w678 clonotype 5 (TCR)
alpha TRAV38-1*01 TRAJ43*01 CDR3: CAFRVSHDMRF
beta TRBV10-2*01 TRBJ2-3*01 CDR3: CASSSGNPSTDTQYF
B2: w678 clonotype 4 (TCR)
alpha TRAV12-1*01 TRAJ45*01 CDR3: CVVATYSGGGADGLTF
beta TRBV10-2*01 TRBJ2-3*01 CDR3: CASSSGNPSTDTQYF
B3: w678 clonotype 2 (TCR)
alpha TRAV38-1*01 TRAJ43*01 CDR3: CAFRVSHDMRF
beta TRBV19*01 TRBJ2-1*01 CDR3: CASSIIAGSSYNEQFF
B4: w830 clonotype 4 (TCR)
alpha TRAV12-1*01 TRAJ43*01 CDR3: CVLNNNDMRF
beta TRBV19*01 TRBJ1-5*01 CDR3: CASSILGASNQPQHF
B5: w830 clonotype 5 (TCR)
alpha TRAV12-1*01 TRAJ43*01 CDR3: CVVNANDMRF
beta TRBV10-3*01 TRBJ2-2*01 CDR3: CAIRARDQNTGELFF
B6: w876 clonotype 5 (TCR)
alpha TRAV38-1*01 TRAJ23*01 CDR3: CAYNQGGKLIF
beta TRBV10-2*01 TRBJ2-2*01 CDR3: CASSVLNTGELFF

Target: T1, MCPyV (Merkel cell polyomavirus) common T-Ag peptide on HLA-A*02:01 (human)
T1 peptide: KLLEIAPNC
Assay: multimer staining
B1: recognises.
B2: recognises.
B3: recognises.

Target: T2, MCPyV (Merkel cell polyomavirus) common T-Ag peptide on HLA-A*02:01 (human)
T2 peptide: KLLEIAPNC
Assay: multimer staining
B2: recognises.
B4: recognises.
B5: recognises.
B6: recognises.
